Article PMC5701251

Target: gp49d, deletion mutant of the phage LKA1 tailspike protein LKA1gp49 without the N-terminal particle-binding domain (residues 1-167) (Pseudomonas phage LKA1)
Experiment: crystal structure; gp49d crystallised in 8% PEG 6000, 0.8 M NaCl, 0.1 M Na acetate pH 3.5 at 18 °C, 20 mg/ml; molecular replacement with gp61d; homotrimer

With “gp49d, deletion mutant of the phage LKA1 tailspike protein LKA1gp49 without the N-terminal particle-binding domain (residues 1-167) (domain or fragment)” the stoichiometry N was 3.
